Test results taken from article PMC3025530 (The Biochemical journal, 2010).
One block for each binder: values may come before it.

Columns and labels:
[1] = target: T1, ADAM12-S (shorter secreted form of ADAM12), full-length (human, UniProt O43184-2 29-707); experiment: enzyme inhibition kinetics
T1 sequence (looked up): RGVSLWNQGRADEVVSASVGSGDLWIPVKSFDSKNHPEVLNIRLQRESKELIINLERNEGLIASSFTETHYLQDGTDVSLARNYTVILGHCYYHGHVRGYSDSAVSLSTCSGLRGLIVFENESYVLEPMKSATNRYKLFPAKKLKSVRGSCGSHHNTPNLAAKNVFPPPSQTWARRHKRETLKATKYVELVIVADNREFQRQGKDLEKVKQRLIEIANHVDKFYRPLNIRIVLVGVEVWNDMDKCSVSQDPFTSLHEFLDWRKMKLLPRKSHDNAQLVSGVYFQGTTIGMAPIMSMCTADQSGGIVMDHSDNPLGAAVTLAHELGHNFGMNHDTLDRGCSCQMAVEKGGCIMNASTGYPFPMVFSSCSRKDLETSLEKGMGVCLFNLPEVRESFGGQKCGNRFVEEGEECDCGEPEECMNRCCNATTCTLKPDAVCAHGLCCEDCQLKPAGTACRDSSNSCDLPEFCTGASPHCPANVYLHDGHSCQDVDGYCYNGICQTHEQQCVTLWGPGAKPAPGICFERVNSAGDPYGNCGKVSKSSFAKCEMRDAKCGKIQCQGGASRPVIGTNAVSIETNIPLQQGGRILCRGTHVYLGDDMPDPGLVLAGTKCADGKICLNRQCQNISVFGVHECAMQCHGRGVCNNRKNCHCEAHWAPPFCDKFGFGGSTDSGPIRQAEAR

[2] = target: T2, ADAM12-Cat (truncated ADAM12 protein consisting of only the pro and catalytic domains) (human, UniProt O43184-2 29-419); experiment: enzyme inhibition kinetics
T2 sequence (looked up): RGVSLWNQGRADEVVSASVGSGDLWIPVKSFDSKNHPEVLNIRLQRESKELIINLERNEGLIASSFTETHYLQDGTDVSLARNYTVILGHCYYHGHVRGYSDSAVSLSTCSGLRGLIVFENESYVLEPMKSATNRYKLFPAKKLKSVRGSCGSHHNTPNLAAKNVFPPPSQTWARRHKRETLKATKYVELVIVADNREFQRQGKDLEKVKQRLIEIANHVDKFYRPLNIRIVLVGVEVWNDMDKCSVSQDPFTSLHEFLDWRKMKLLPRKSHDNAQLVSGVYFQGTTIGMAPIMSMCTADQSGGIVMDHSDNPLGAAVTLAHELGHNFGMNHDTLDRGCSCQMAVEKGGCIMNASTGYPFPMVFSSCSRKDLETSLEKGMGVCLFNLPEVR

- Ki [1]: 223 nM
- Ki [2]: 741 nM
B1: TIMP-1 (tissue inhibitor of metalloproteinases 1), full-length (natural protein)
chain: not shown

- Ki [1]: 4.4 nM
- Ki [2]: 0.93 nM
B2: N-TIMP-3 (N-terminal domain of TIMP-3), wild-type (domain or fragment, human)
chain: CTCSPSHPQDAFCNSDIVIRAKVVGKKLVKEGPFGTLVYTIKQMKMYRGFTKMPHVQYIHTEASESLCGLKLEVNKYQYLLTGRVYDGKMYTGLCNFVERWDQLTLSQRKGLNYRYHLGCN
